B1: CHS5 IgG (antibody, V domains shown)
VH: EVQLVESGGGLVQPGGSLRLSCAASGFTITDRTIHWVRQAPGKGLEWVASIFPTKGVTTYADSVKGRFTISADTSKNTAYLQMNSLRAEDTAVYYCARGRYWMDYWGQGTLVTVSS
VL: DIQMTQSPSSLSASVGDRVTITCRASQDVKEGVAWYQQKPGKAPKLLIDQSHRLYSGVPSRFSGSGSGTDFTLTISSLQPEDFATYYCQQYYAWPSTFGQGTKVEIKR
notes: also called IgG1-CHS5
B2: ALA12 IgG (antibody, V domains shown)
VH: EVQLVESGGGLVQPGGSLRLSCAASGFTIGNWTIHWVRQAPGKGLEWVALIWPESGATLYADSVKGRFTISADTSKNTAYLQMNSLRAEDTAVYYCARGRYWMDYWGQGTLVTVSS
VL: DIQMTQSPSSLSASVGDRVTITCRASQDVRDGVAWYQQKPGKAPKLLIDQMVRLYSGVPSRFSGSGSGTDFTLTISSLQPEDFATYYCQQYFNWPVTFGQGTKVEIKR
B3: ALA12-vcMMAE (antibody, V domains shown)
VH: EVQLVESGGGLVQPGGSLRLSCAASGFTIGNWTIHWVRQAPGKGLEWVALIWPESGATLYADSVKGRFTISADTSKNTAYLQMNSLRAEDTAVYYCARGRYWMDYWGQGTLVTVSS
VL: DIQMTQSPSSLSASVGDRVTITCRASQDVRDGVAWYQQKPGKAPKLLIDQMVRLYSGVPSRFSGSGSGTDFTLTISSLQPEDFATYYCQQYFNWPVTFGQGTKVEIKR
notes: also called ALA12 IgG1-vcMMAE
B4: CHS7 IgG (antibody, V domains shown)
VH: EVQLVESGGGLVQPGGSLRLSCAASGFTIDKEAIHWVRQAPGKGLEWVASIYPHSGFTLYADSVKGRFTISADTSKNTAYLQMNSLRAEDTAVYYCARGRYWMDYWGQGTLVTVSS
VL: DIQMTQSPSSLSASVGDRVTITCRASQDVEDGVAWYQQKPGKAPKLLIGIKDLLYSGVPSRFSGSGSGTDFTLTISSLQPEDFATYYCQQYYRWPSTFGQGTKVEIKR
B5: CHS7-vcMMAE (antibody, V domains shown)
VH: EVQLVESGGGLVQPGGSLRLSCAASGFTIDKEAIHWVRQAPGKGLEWVASIYPHSGFTLYADSVKGRFTISADTSKNTAYLQMNSLRAEDTAVYYCARGRYWMDYWGQGTLVTVSS
VL: DIQMTQSPSSLSASVGDRVTITCRASQDVEDGVAWYQQKPGKAPKLLIGIKDLLYSGVPSRFSGSGSGTDFTLTISSLQPEDFATYYCQQYYRWPSTFGQGTKVEIKR
notes: also called CHS7 IgG1-vcMMAE
B6: CHS8 IgG (antibody, V domains shown)
VH: EVQLVESGGGLVQPGGSLRLSCAASGFTISKASIHWVRQAPGKGLEWVASIWPTKGFTTYADSVKGRFTISADTSKNTAYLQMNSLRAEDTAVYYCARGRYWLDYWGQGTLVTVSS
VL: DIQMTQSPSSLSASVGDRVTITCRASQDVKEGVAWYQQKPGKAPKLLIDERERLYSGVPSRFSGSGSGTDFTLTISSLQPEDFATYYCQQYNTWPATFGQGTKVEIKR
B7: CHS8-vcMMAE (antibody, V domains shown)
VH: EVQLVESGGGLVQPGGSLRLSCAASGFTISKASIHWVRQAPGKGLEWVASIWPTKGFTTYADSVKGRFTISADTSKNTAYLQMNSLRAEDTAVYYCARGRYWLDYWGQGTLVTVSS
VL: DIQMTQSPSSLSASVGDRVTITCRASQDVKEGVAWYQQKPGKAPKLLIDERERLYSGVPSRFSGSGSGTDFTLTISSLQPEDFATYYCQQYNTWPATFGQGTKVEIKR
notes: also called CHS8 IgG1-vcMMAE
B8: CHS5-vcMMAE (antibody, V domains shown)
VH: EVQLVESGGGLVQPGGSLRLSCAASGFTITDRTIHWVRQAPGKGLEWVASIFPTKGVTTYADSVKGRFTISADTSKNTAYLQMNSLRAEDTAVYYCARGRYWMDYWGQGTLVTVSS
VL: DIQMTQSPSSLSASVGDRVTITCRASQDVKEGVAWYQQKPGKAPKLLIDQSHRLYSGVPSRFSGSGSGTDFTLTISSLQPEDFATYYCQQYYAWPSTFGQGTKVEIKR
notes: also called CHS5 IgG1-vcMMAE

Assays:
mesothelin (MSLN) [1] = target: T1, mesothelin (MSLN) (UniProt Q13421 296-580); experiment: ELISA, MSLN coated on plate, IgG1 detected with anti-human IgG HRP
T1 construct: also called immobilized MSLN

[2] = target: MSLN expressed on the cell surface of human cancer cell lines N87 and H226 (human, UniProt Q13421 37-598); experiment: cell-based or functional assay
mesothelin (MSLN) [3] = target: T1, mesothelin (MSLN); experiment: ELISA, MSLN coated on plate, IgG1-vcMMAE detected with anti-human IgG HRP

T1 sequence (Q13421 other isoform, or with tags, fused parts or gaps limits assumed): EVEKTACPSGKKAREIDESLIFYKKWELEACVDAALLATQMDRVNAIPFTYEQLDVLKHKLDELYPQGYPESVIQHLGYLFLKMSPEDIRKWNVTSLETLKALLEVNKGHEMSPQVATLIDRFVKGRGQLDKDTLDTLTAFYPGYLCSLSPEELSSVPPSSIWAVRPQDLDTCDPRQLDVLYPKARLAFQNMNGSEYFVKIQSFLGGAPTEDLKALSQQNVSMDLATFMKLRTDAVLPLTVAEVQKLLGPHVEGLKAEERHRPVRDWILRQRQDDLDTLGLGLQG

Row | Binder | EC50 (mesothelin (MSLN) [1]) [ng/mL] | IgG1-AL1-PE38KDEL IC50 (nM), cell viability of N87 cells [2] [nM] | IgG1-vcMMAE IC50 (nM), cell viability of N87 cells [2] [nM] | EC50 (mesothelin (MSLN) [3]) [ng/mL]
1 | B1 | 4.67 | 0.06 | – | –
2 | B2 | 8.37 | 0.1 | – | –
3 | B3 | – | – | 39.9 | 10.5
4 | B4 | 10.3 | 0.06 | – | –
5 | B5 | – | – | 25.9 | 16.3
6 | B6 | 5.05 | 0.01 | – | –
7 | B7 | – | – | 24.6 | 9.26
8 | B8 | – | – | 15 | 9.56

— US20240277865A1 (ACADEMIA SINICA, published 2024)
